# Laboratory results reported in paper PMC9012472 (Science Advances, 2022).
# T1: human Inturned (human, UniProt Q9ULD6 1-942)
# T1 sequence (looked up): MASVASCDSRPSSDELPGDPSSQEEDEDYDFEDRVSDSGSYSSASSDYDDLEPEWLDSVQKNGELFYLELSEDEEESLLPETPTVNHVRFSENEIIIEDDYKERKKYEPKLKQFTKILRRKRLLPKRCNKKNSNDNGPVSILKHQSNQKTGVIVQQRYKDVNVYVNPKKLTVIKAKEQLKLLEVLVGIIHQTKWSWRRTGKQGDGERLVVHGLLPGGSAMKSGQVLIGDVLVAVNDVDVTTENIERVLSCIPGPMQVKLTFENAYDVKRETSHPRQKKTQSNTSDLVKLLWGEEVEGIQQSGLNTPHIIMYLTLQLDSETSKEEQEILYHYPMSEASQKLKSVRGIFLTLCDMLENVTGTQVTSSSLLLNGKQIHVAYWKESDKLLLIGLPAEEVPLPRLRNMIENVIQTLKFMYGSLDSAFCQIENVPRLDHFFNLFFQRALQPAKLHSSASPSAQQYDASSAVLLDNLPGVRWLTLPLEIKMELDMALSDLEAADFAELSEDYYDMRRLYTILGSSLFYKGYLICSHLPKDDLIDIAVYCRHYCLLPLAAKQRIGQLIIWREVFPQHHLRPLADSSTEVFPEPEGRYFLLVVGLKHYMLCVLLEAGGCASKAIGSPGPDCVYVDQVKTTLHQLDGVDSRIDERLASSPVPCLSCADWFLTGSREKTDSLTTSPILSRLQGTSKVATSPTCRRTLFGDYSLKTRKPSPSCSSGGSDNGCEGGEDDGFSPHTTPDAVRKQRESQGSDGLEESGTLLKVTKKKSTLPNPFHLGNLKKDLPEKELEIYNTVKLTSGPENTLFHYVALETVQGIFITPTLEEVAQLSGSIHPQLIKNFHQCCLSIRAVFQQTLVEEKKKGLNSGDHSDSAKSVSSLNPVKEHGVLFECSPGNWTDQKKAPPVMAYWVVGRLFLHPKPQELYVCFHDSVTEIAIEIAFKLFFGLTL
# Target: T1, human Inturned
# Experiment: cryo-EM structure
row,binding result,Binder
1,binds,"human Wdpcp (natural protein, UniProt O95876 1-746, looked up) MRREFCWDAYSKAAGSRASSPLPRQDRDSFCHQMSFCLTELHLWSLKNTLHIADRDIGIYQYYDKKDPPATEHGNLEKKQKLAESRDYPWTLKNRRPEKLRDSLKELEELMQNSRCVLSKWKNKYVCQLLFGSGVLVSLSLSGPQLEKVVIDRSLVGKLISDTISDALLTDSFIILSFLAQNKLCFIQFTKKMESSDVNKRLEKLSALDYKIFYYEIPGPINKTTERHLAINCVHDRVVCWWPLVNDDAWPWAPISSEKDRANLLLLGYAQGRLEVLSSVRTEWDPLDVRFGTKQPYQVFTVEHSVSVDKEPMADSCIYECIRNKIQCVSVTRIPLKSKAISCCRNVTEDKLILGCEDSSLILYETHRRVTLLAQTELLPSLISCHPSGAILLVGSNQGELQIFDMALSPINIQLLAEDRLPRETLQFSKLFDASSSLVQMQWIAPQVVSQKGEGSDIYDLLFLRFERGPLGVLLFKLGVFTRGQLGLIDIIFQYIHCDEIYEAINILSSMNWDTLGHQCFISMSAIVNHLLRQKLTPEREAQLETSLGTFYAPTRPLLDSTILEYRDQISKYARRFFHHLLRYQRFEKAFLLAVDVGARDLFMDIHYLALDKGELALAEVARKRASDIDAESITSGVELLGPLDRGDMLNEAFIGLSLAPQGEDSFPDNLPPSCPTHRHILQQRILNGSSNRQIIDRRNELEKDICSGFLMTNTCNAEDGELREDGREQEIRDGGSLKMIHFGLV"
2,binds,"human Fuzzy (natural protein, UniProt Q9BT04 1-418, looked up) MGEEGTGGTVHLLCLAASSGVPLFCRSSRGGAPARQQLPFSVIGSLNGVHMFGQNLEVQLSSARTENTTVVWKSFHDSITLIVLSSEVGISELRLERLLQMVFGAMVLLVGLEELTNIRNVERLKKDLRASYCLIDSFLGDSELIGDLTQCVDCVIPPEGSLLQEALSGFAEAAGTTFVSLVVSGRVVAATEGWWRLGTPEAVLLPWLVGSLPPQTARDYPVYLPHGSPTVPHRLLTLTLLPSLELCLLCGPSPPLSQLYPQLLERWWQPLLDPLRACLPLGPRALPSGFPLHTDILGLLLLHLELKRCLFTVEPLGDKEPSPEQRRRLLRNFYTLVTSTHFPPEPGPPEKTEDEVYQAQLPRACYLVLGTEEPGTGVRLVALQLGLRRLLLLLSPQSPTHGLRSLATHTLHALTPLL"
